# ± gives the uncertainty stated by the source.
# B1: RAS guanyl-releasing protein 1, residues 539 to 593; numbered along this chain, O95267 (parent)
# chain: GFPHNFQETTYLKPTFCDNCAGFLWGVIKQGYRCKDCGMNCHKQCKDLVVFECKK
# Variants of: B1
# Assay: abundance fitness (aPCA) (normalised: wild type 0, dead -1); higher = more abundant; growth selection in yeast, the domain comes from the species named
# Conditions: Homo sapiens
row,Variant,abundance fitness
1,GFPKNFQETTYLKPTFCDNCAGFLWGVIKQGYRCKDCGMNCHKQCKDLVVFECKK,-0.243 ± 0.11
2,GFPMNFQETTYLKPTFCDNCAGFLWGVIKQGYRCKDCGMNCHKQCKDLVVFECKK,-0.335 ± 0.12
3,GFPHKFQETTYLKPTFCDNCAGFLWGVIKQGYRCKDCGMNCHKQCKDLVVFECKK,-0.157 ± 0.11
4,GFPHVFQETTYLKPTFCDNCAGFLWGVIKQGYRCKDCGMNCHKQCKDLVVFECKK,-0.218 ± 0.079
5,GFPHNFQETTYRKPTFCDNCAGFLWGVIKQGYRCKDCGMNCHKQCKDLVVFECKK,-0.178 ± 0.06
6,GFPHNFQETTYGKPTFCDNCAGFLWGVIKQGYRCKDCGMNCHKQCKDLVVFECKK,-0.038 ± 0.08
7,GFPHNFQETTYLKPTFCDNCAGFLWGVIKQGYRCKDCGMNCMKQCKDLVVFECKK,-0.76 ± 0.15
8,GFPHNFQETTYLKPTFCDNCAGFLWGVIKQGYRCKDCGINCHKQCKDLVVFECKK,-0.115 ± 0.045
9,GFPHNFQETTYLKPTFCDNCAGFLWGVIKQGYRCKDCGRNCHKQCKDLVVFECKK,-0.143 ± 0.048
10,GFPHNFQETTYLKPTFCDNCAGFLWGVIKQGYRCKDCGGNCHKQCKDLVVFECKK,-0.097 ± 0.049
11,GFPHNFTETTYLKPTFCDNCAGFLWGVIKQGYRCKDCGMNCHKQCKDLVVFECKK,-0.236 ± 0.11
12,GFPHNFQETTYLKPTFCDNCAGFLWGVIKQGYRCKDCGMNCHKQCKDTVVFECKK,-0.047 ± 0.078
13,GFPHNFQETTYLKPTFCDNCAGFLWGVIKQGYRCKDCGMNCHKQCKDSVVFECKK,0.058 ± 0.089
14,GFPHNFQETPYLKPTFCDNCAGFLWGVIKQGYRCKDCGMNCHKQCKDLVVFECKK,-0.605 ± 0.13
15,GFPHNFQETLYLKPTFCDNCAGFLWGVIKQGYRCKDCGMNCHKQCKDLVVFECKK,-0.426 ± 0.052
16,GFPHNFQETTYLKPTFCDNCAGFLWGVIKQGYRCKDCGMNCHKACKDLVVFECKK,0.011 ± 0.074
17,GFPHNFQETTYLKPTFCDNCAGFLWGVIKQGYRCKDCGMNCHKFCKDLVVFECKK,0.072 ± 0.14
18,GFPHNFQETTYLKPTFCDNCAGFLWGVIKQGYRCKDCGMNCHKVCKDLVVFECKK,0.079 ± 0.11
19,GFPHNFQETTYLKPTFCDNCAGFLWGVIKQGYRCKDCGMNCHKSCKDLVVFECKK,0.149 ± 0.089
20,GFPHNFQETTYLKPTFCDNCAGFLWGVIKQGYRCKDCGMNCHKQCGDLVVFECKK,-0.018 ± 0.076
21,GFPHNFQETTYLKPTFFDNCAGFLWGVIKQGYRCKDCGMNCHKQCKDLVVFECKK,-1.14 ± 0.24
22,GFPHNFQETTYLKPTFSDNCAGFLWGVIKQGYRCKDCGMNCHKQCKDLVVFECKK,-0.948 ± 0.18
23,GFPHNFQETTYLKPTFTDNCAGFLWGVIKQGYRCKDCGMNCHKQCKDLVVFECKK,-0.821 ± 0.37
24,GFPHNFQETTYLKPTFCDNCAEFLWGVIKQGYRCKDCGMNCHKQCKDLVVFECKK,-0.164 ± 0.14

row,Variant,abundance fitness
1,GFPHNFQETTYLKPTFCDNCAGFLWGVIKQGYRSKDCGMNCHKQCKDLVVFECKK,-0.947 ± 0.12
2,GFPHNFQETTHLKPTFCDNCAGFLWGVIKQGYRCKDCGMNCHKQCKDLVVFECKK,0 ± 0.18
3,GFPHNFQATTYLKPTFCDNCAGFLWGVIKQGYRCKDCGMNCHKQCKDLVVFECKK,0.039 ± 0.066
4,GFPHNFQETTYLKPTFCDNCAGFLLGVIKQGYRCKDCGMNCHKQCKDLVVFECKK,-0.286 ± 0.087
5,GFPHNFQETTYLKPTFCDNCAGFLVGVIKQGYRCKDCGMNCHKQCKDLVVFECKK,-0.102 ± 0.05
6,GFPHNFQENTYLKPTFCDNCAGFLWGVIKQGYRCKDCGMNCHKQCKDLVVFECKK,-0.051 ± 0.14
7,GFPHNFQETTYLKPTFCLNCAGFLWGVIKQGYRCKDCGMNCHKQCKDLVVFECKK,-0.013 ± 0.095
8,GFPHNFQETTYLKPTFCCNCAGFLWGVIKQGYRCKDCGMNCHKQCKDLVVFECKK,-0.253 ± 0.1
9,GFPHNFQETTYLKPTFCDNCAGFLWGVIKQGYRCKDDGMNCHKQCKDLVVFECKK,-0.864 ± 0.17
10,GFPHNFQETTYLKPTFCDNCAGFLWGVIKQGYRCKDWGMNCHKQCKDLVVFECKK,-0.607 ± 0.11
11,GFPHNFQETTYLKPTLCDNCAGFLWGVIKQGYRCKDCGMNCHKQCKDLVVFECKK,-0.487 ± 0.11
12,GFPHNFQETTYLKPTFCDNCAGFLWGVIKQGYRCKDCGMNCHKQCKDLVVFEQKK,0.043 ± 0.077
13,GFPHNFQETTYLKITFCDNCAGFLWGVIKQGYRCKDCGMNCHKQCKDLVVFECKK,-0.647 ± 0.24
14,GFPHNFQETTYLKLTFCDNCAGFLWGVIKQGYRCKDCGMNCHKQCKDLVVFECKK,-0.296 ± 0.075
15,GFPHNFQETTYLKVTFCDNCAGFLWGVIKQGYRCKDCGMNCHKQCKDLVVFECKK,-0.384 ± 0.082
16,GFPHNFQETTYLKPTFCDLCAGFLWGVIKQGYRCKDCGMNCHKQCKDLVVFECKK,-0.018 ± 0.084
17,GFPHNFQETTYLKPTFCDTCAGFLWGVIKQGYRCKDCGMNCHKQCKDLVVFECKK,-0.043 ± 0.056
18,GFPHNFQETTYLKPTFCDNCAGFLWGVIKQGYRCKDCGMNCHKQCKDLVVFECPK,-0.586 ± 0.31
19,GFPHNFQETTYLKPTFCDNCAGFLWGVIKQGYRCKDCGMNCHKQCKDLVVFECQK,-0.113 ± 0.16
20,GFPHNFQETTYLKPTFCDNCAGFLWGVIKQGYRCKDCGMNCHKQCKDLVRFECKK,-0.11 ± 0.068
21,GFPHNFQETTYLKPTFCDNCAGFLWGVIKQGYRCKDCGMNCHKQCKDLVHFECKK,-0.214 ± 0.15
22,GFPHNFQETTYLKPTFCDNCAGFLWGVIKQGYRCKDCGMNCHKQCKDLVGFECKK,-0.076 ± 0.071
23,GFPHNFQETTYLKPTFCDNCAGHLWGVIKQGYRCKDCGMNCHKQCKDLVVFECKK,-0.706 ± 0.2
24,GFPHNFQETTYLKPTFCDNCAGCLWGVIKQGYRCKDCGMNCHKQCKDLVVFECKK,-0.166 ± 0.16
